The source of these data is the nanobody polyreactivity screen of Harvey et al. (2022).

This data set in a line: yeast display, Sf9 membrane polyspecificity reagent, FACS + sequencing; frameworks hold sequencing errors. The gist of the method: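 Galactose induction of a Saccharomyces cerevisiae BJ5465 synthetic nanobody display library ran 36–48 hours. The cells were then stained for 1 hour at 4 °C with 10% biotinylated, detergent-solubilized Sf9 membrane reagent, pulled down on streptavidin microbeads and FACS-sorted into low and high (top ~1%) gates on expression and reagent-binding fluorescence. Labels for polyreactivity follow the gate of origin.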
With “QVQLVESGGGLVQAGGSLRLSCAASGSTFSRNAMGWYRQAPGKERELVAAITRSGGSTYYADSVKGRFTISRDNAKNTVYLQMNSLKPEDTAVYYCAVAVPRGVYLYDYWGQGTQVTVSS”, the “polyreactivity (PSR sort gate)” value is reported as “low polyreactivity”.

As to “QVQLVESGGGLVQAGGSLRLSCAASGSTFSRNAMGWYRQAPGKERELVASISWSGARTYYADSVKGRFTISRDNAKNTVYLQMNSLKPEDTAVYYCAKFRSYRGPYNYWGQGTQVTVSS”, the “polyreactivity (PSR sort gate)” value is reported as “high polyreactivity”.

Consider “QVQLVESGGGLVQAGGSLRLSCAASGSTFSRNAMGWYRQAPGKERELVATISRSGRTNYADSVKGRFTISRDNAKNTVYLQMNSLKPEDTAVSYCNAGYRRSYEYWGQGTQVTVSS”, for which the “polyreactivity (PSR sort gate)” value is “low polyreactivity”.

In the case of “QVQLVESGGGLVQAGGSLRLSCAASGSTFSRNAMGWYRQAPGKERELVATISWRGGSTYYADSVKGRFTISRDNAKNTVYLQMNSLKPEDTAVYYCATLHRPAYYYWGQGTQVTVSS”, the “polyreactivity (PSR sort gate)” value is “high polyreactivity”.

As to “QVQLVESGGGLVQAGGSLRLSCAASGSTFSRYAMGWDRQAPGKEMELVAAISSSGGGTYYADSVKGRFTISRDNAKNTVYLQMNSLKPEDTAVSYCAAKRVHGATGYWGQGTQVTVSS”, the “polyreactivity (PSR sort gate)” value is “high polyreactivity”.

As to “QVQLVESGGGLVQAGGSLRLSCAASGSTFSRYAMGWSRQAPGKERELVAVITGSGGSTYYADSVKGRFTISRDNAKNTVYLQMNSLKPEDTAVYYCNAVYFALSPQYYWAASDYWGQGTQVTVSS”, the “polyreactivity (PSR sort gate)” value was “high polyreactivity”.

“QVQLVESGGGLVQAGGSLRLSCAASGSTFSRYAMGWYRPAPGKERELVAAISYSGDSTYYADSVKGRFTISRDNAKNTVYLQMNSLKPEDTAVYYCNVYSHYRGYYWGQGTQVTVSS”: the “polyreactivity (PSR sort gate)” value is reported as “high polyreactivity”.

For “QVQLVESGGGLVQAGGSLRLSCAASGSTFSRYAMGWYRQAPGKERELVAAISSRGGSTYYADSVKGRFTISRDNAKNTVYLQMNSLKPEDTAVYYCNALTSYQNHVYPYDYWGQGTQVTVSS”, the “polyreactivity (PSR sort gate)” value was “high polyreactivity”.

As for “QVQLVESGGGLVQAGGSLRLSCAASGSTFSRYAMGWYRQAPGKERELVAAISSSGGSTYYADSVKGRFTISRDNAKNTVYLQMNSLKPEDTAVYYCAARYYGVTRGYNYWGQGTQVTVSS”, the “polyreactivity (PSR sort gate)” value is on record as “high polyreactivity”.

For “QVQLVESGGGLVQAGGSLRLSCAASGSTFSRYAMGWYRQAPGKERELVAAISWGGNTYYADSVKGRFTISRDNAKNTVYLQMNSLKPEDTAVYYCNRYSKLYNTMDYWGQGPQVTVSS”, the “polyreactivity (PSR sort gate)” value is on record as “high polyreactivity”.

Take “QVQLVESGGGLVQAGGSLRLSCAASGSTFSRYAMGWYRQAPGKERELVAAITYRGARTYYADSVKGRFTISRDNAKNTVYLQMNSLKPEDTAVYYCNTVPPPYNFRYGYWGQGTQVTVSS”: the “polyreactivity (PSR sort gate)” value is on record as “high polyreactivity”.

For “QVQLVESGGGLVQAGGSLRLSCAASGSTFSRYPMGWSRQAPGKERELVAAISWGGNTYYADSVKGRFTISRDNAKNTVYLQMNSLQPEDTAVYYCNRYSKLYNTMDYWGQGTQVTVSS”, the “polyreactivity (PSR sort gate)” value is “high polyreactivity”.

In the case of “QVQLVESGGGLVQAGGSLRLSCAASGSTFSSLIMGWYRQAPGKERELVAAISRSGGRTYYADSVKGRFTISRDNAKNTVYLQMNSLIPEDTAVYYCAADYVSVDRIRYGYCGQGTQVTVSS”, the “polyreactivity (PSR sort gate)” value is on record as “high polyreactivity”.

Take “QVQLVESGGGLVQAGGSLRLSCAASGSTFSSYAMGWYRQAPGKEREIVADINGSGGRTYYADSVKGRFTISRDNAKNTVYLQMNSLKPEDTAVYYCIAYYLQGEYYTEDYWGQGTQVTVSS”: the “polyreactivity (PSR sort gate)” value is given as “low polyreactivity”.

Take “QVQLVESGGGLVQAGGSLRLSCAASGSTFSTNARGWYRQAPGKERELVAAINWSTGSTHYADSVKGRFTISRDNAKNTVYLQMNSLKPEDTAVYFCAAEGPKQYDYWGQGYQVTVSS”: the “polyreactivity (PSR sort gate)” value was “low polyreactivity”.

With “QVQLVESGGGLVQAGGSLRLSCAASGSTFSTYAMGWYRQAPGKEREFVAAIRWSGGSTYYADSVKGRFTISRDNAKNTVYLQMNSLKREHTAVYYSAKGIRRWYGGCDYWGQGTKVTVSS”, the “polyreactivity (PSR sort gate)” value is listed as “low polyreactivity”.

“QVQLVESGGGLVQAGGSLRLSCAASGSTFSTYAMGWYRQAPGKERELVATISKRGGSTYYADSVKGRFTISRDNAKNTVYLQMNSLKAEDTAVYYCDARWQWLNGYYYWGQGTQVSVSS”: the “polyreactivity (PSR sort gate)” value is reported as “high polyreactivity”.

For “QVQLVESGGGLVQAGGSLRLSCAASGSTFSVNAMGWYRQAPGKEREFVARITWRGGSTYYADSVKRRFTISRDNAKNTVYLQMNSLKPEDTAVYYCAATLRYWWRSSYEDYYWGQGTQVTVSS”, the “polyreactivity (PSR sort gate)” value is listed as “low polyreactivity”.

With “QVQLVESGGGLVQAGGSLRLSCAASGSTFSVYALGWYRPAPGKERELVAVISSTDDSTYYADSVKGRFTISRDNAKNTVYLQMNSLKPEDTAVYYCAAPDDTTGYDYYYWGQGTQVTVSS”, the “polyreactivity (PSR sort gate)” value is on record as “low polyreactivity”.

With “QVQLVESGGGLVQAGGSLRLSCAASGSTFSVYAMGWYRQAPGKERELVAAISTSGGSTYYADSVKGRFTISRDNAKNTVYLQMNSLKTEDTAVYYCNAEYSGYIYPYSYPIYYWYDYWGQGTQVTVSS”, the “polyreactivity (PSR sort gate)” value is “high polyreactivity”.

Consider “QVQLVESGGGLVQAGGSLRLSCAASGSTFSVYAMGWYRQAPGKERELVAAISWSGGSTYYADSVKGRFTISRDNAKNTVYLQMNSLKPEDTAVYYCNATVTYYRYYAYVRRYYWGQGTQVTVSS”, for which the “polyreactivity (PSR sort gate)” value is recorded as “high polyreactivity”.

Turning to “QVQLVESGGGLVQAGGSLRLSCAASGSTFSWYAMGWYRQAPGKERELVAAISYSGGTYYADSVKGRFTISRDNAKNTVYLQMNSLKPEDTAVYYCAALRTRYGYDYWGQGTQVTVSS”, the “polyreactivity (PSR sort gate)” value is “high polyreactivity”.

In the case of “QVQLVESGGGLVQAGGSLRLSCAASGSTFSWYVMGWYRQAPGKERELVAAITRGGGSTYYADSVKGRFTISRDNAKNTVYLQMNSLKPEDAAVYYCNADPGFRSGDYGYSSFDYWGQGTQVTVSS”, the “polyreactivity (PSR sort gate)” value is recorded as “low polyreactivity”.

For the sequence “QVQLVESGGGLVQAGGSLRLSCAASGSTFSYAMGWYRQAPGKERELVAAITIGGRTSYADSVKGRFTISRDNAKNTVYLQMNSLNPEDTAVYYCAADDLPGMDYWGQGSQVTVSS”, the “polyreactivity (PSR sort gate)” value was “low polyreactivity”.

Consider “QVQLVESGGGLVQAGGSLRLSCAASGSTFSYMGWYRQAPGKERELVAAISYRGGRTYYADSVKGRFTISRDNAKNTVYLQMNSLTPEDTAVYYCNADGGRTYYSRYDYWGQGTQVTVSS”, for which the “polyreactivity (PSR sort gate)” value was “low polyreactivity”.

For “QVQLVESGGGLVQAGGSLRLSCAASGSTFSYNAMGWYRQAPGKERELVAAIDRSVSTNYADSVKGRFTISRDNAKNTVYLQMNSLKPEDTAVYYCNARHPTDDIVIYDYWGQGTQVTVSS”, the “polyreactivity (PSR sort gate)” value is “low polyreactivity”.

For the sequence “QVQLVESGGGLVQAGGSLRLSCAASGSTFSYNAMGWYRQAPGKERELVAAISRGGITNYADSVKGRFTISRDNAKNTVYLQMNSLKPEDTAVYYCNAGYLGGPSYEYWGQGTLVTVSS”, the “polyreactivity (PSR sort gate)” value is recorded as “low polyreactivity”.

Consider “QVQLVESGGGLVQAGGSLRLSCAASGSTFSYNAMGWYRQAPGKERELVAAITSSGSSTYYADSVKGRFTISRYNAKNTVYLQMNSMKPEDTAVYYCNAEVLFVAGQVQRNSGDYWGQGTEVTVSS”, for which the “polyreactivity (PSR sort gate)” value is “low polyreactivity”.

For the sequence “QVQLVESGGGLVQAGGSLRLSCAASGSTFSYSTMVWYRQPPGKERELVATISRRGASTYYADSVKGRFTISRDNAKNTVYLQMNSLKPEDTAVYYCAKSYYYGRSATRPEYDYWGQGTQVTVSS”, the “polyreactivity (PSR sort gate)” value is given as “high polyreactivity”.

As for “QVQLVESGGGLVQAGGSLRLSCAASGSTFSYYAMGWYRQAPGKEWEFVAAISRSGGRTYYADSVKGRFTISRDNAKNTVYLQMNSLKPEDTAVYYCATVYYYDFSRTHPWPGDYWGQGTQVTVSS”, the “polyreactivity (PSR sort gate)” value was “high polyreactivity”.

As to “QVQLVESGGGLVQAGGSLRLSCAASGSTFSYYNMGLYIQATGKERELLAAINRRGDSTYADSVKWRFTISRDNAKNTVYLQMNSLKPEDTAVYDCAADASVGVSGMDYWGQGTQVTVSS”, the “polyreactivity (PSR sort gate)” value is on record as “low polyreactivity”.

Turning to “QVQLVESGGGLVQAGGSLRLSCAASGSTFSYYVMGWYRPAPGKERELVAAISGSGGSTYYADSVKGRFTISRDNAKNTVYLQMNSLKPEDTAVYYCDANDGSEYDYWGQGTQVTVSS”, the “polyreactivity (PSR sort gate)” value is “high polyreactivity”.

For the sequence “QVQLVESGGGLVQAGGSLRLSCAASGSTFSYYVMGWYRQAPGKERELVAAISGSGGSTYYSDSVKGRFTISRDNAKNTVYLQMNSLKPEDTAVYYCAANDGSEYDYWGQGTQVTVSS”, the “polyreactivity (PSR sort gate)” value was “high polyreactivity”.

As to “QVQLVESGGGLVQAGGSLRLSCAASGSTFTAYAMGWYRQAPGKERELVAAISKRSGGTYYADSVKGRFTISRDNAKNTVYLQMNSLKPEVTAVYYCGQGTQVTVSS”, the “polyreactivity (PSR sort gate)” value is given as “low polyreactivity”.

For the sequence “QVQLVESGGGLVQAGGSLRLSCAASGSTFTAYAMGWYRQAPGKERELVAAITSSGGGTYYADSVKGRFTISRDNAKNPVYLQMNSLKPEDTAVYYCAAVPGYGYYNYSDFDYWGQGTQVTVSS”, the “polyreactivity (PSR sort gate)” value is listed as “low polyreactivity”.

“QVQLVESGGGLVQAGGSLRLSCAASGSTFTDNAMGWYRQAPGKERELVAAITSGSSTNYADSVKGRFTISRDNAKNTVYLQMNSLKPEDTAVYYCATCQEPQYSTGDYWGQGTQVTVSS”: the “polyreactivity (PSR sort gate)” value was “low polyreactivity”.

For the sequence “QVQLVESGGGLVQAGGSLRLSCAASGSTFTDYAMGWYRQAPGKERELVAAITDSGGRTYYADSVKGRFTISRDNAKNTVYLQMNSLKPEDTAVYYCATEDDRWYYWGQGTQVTVSS”, the “polyreactivity (PSR sort gate)” value is on record as “high polyreactivity”.

As to “QVQLVESGGGLVQAGGSLRLSCAASGSTFTDYDMGWYRQAPGKERELVAAITSGGSTNYADSVKGRFTISRDNAKNTVYLQMNSLKPEDTAVYYCAAADADRKYDYWGQGTQVTVSS”, the “polyreactivity (PSR sort gate)” value is on record as “low polyreactivity”.

As for “QVQLVESGGGLVQAGGSLRLSCAASGSTFTFNAMGWSRQAPGKDRELVAAIRWSTGGTYYADSVKGRFTISRDNAKNTVYLQMNSLKPEDTAVYNCAAQFVPYFYFSKYDYWGQGTQVTVSS”, the “polyreactivity (PSR sort gate)” value is “low polyreactivity”.

In the case of “QVQLVESGGGLVQAGGSLRLSCAASGSTFTGNAMAWYRQAPGKERELVAAISRSGGSTFYADYVKGRFTISRDNAKNTVYLQMNSLKPEDTAVYYCATRYVVDMDYWGQGTQVTVSS”, the “polyreactivity (PSR sort gate)” value was “high polyreactivity”.

Regarding “QVQLVESGGGLVQAGGSLRLSCAASGSTFTGYAMGWSRQAPGKEREIVATITKRGGRTYYADSVKGRFTISRDNAKNTVYLQMNSLKPEDTAVYYCARDQGKLVVPYAYWGQGTQVTVSS”, the “polyreactivity (PSR sort gate)” value is given as “high polyreactivity”.
